Target: septin-7 (commercially purified, LSBio) (UniProt Q16181)
Assay: MST

Chain of septin-7 (commercially purified, LSBio) (Q16181 whole entry): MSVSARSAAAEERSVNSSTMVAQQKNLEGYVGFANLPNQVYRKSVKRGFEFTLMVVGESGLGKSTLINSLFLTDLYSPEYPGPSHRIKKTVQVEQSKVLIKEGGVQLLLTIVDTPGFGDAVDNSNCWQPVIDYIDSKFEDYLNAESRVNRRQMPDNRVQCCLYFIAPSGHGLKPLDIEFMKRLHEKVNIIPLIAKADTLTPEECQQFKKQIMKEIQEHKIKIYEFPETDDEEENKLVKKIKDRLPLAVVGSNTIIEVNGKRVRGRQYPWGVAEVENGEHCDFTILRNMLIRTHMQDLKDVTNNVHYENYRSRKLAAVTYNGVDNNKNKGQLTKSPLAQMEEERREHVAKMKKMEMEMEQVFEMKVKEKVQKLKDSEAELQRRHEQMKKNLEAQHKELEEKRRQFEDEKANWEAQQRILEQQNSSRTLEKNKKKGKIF

SOD1 trimer, HG trimer-stabilising mutant (printed as H46G-G108H and as H46Q-G108H) (from UniProt P00441 1-154) (enzyme)
Kd: 7.48 µM

— article PMC11455619
